The source of these data is the supplement of paper PMC7125110.

Usually kcat stands for the number of substrate molecules converted per active site and unit of time at saturation. What is called KM is the concentration of substrate that gives half-maximal velocity.

To fix the notation:
B1: glmS ribozyme (parent)
chain: AUAAAAGCGCCAGAACUACAGAAAUGUAGUUGACGAGGAGGAGGUUUAUCGAAUUUUCGGCGGAUGCCUCCAAA

Settings in all cases: with glucosamine-6-phosphate
In data set [1] the parent is B1. Nature of the data set: kcat; higher = faster cleavage; RNA array. The essentials:
(§1)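 Tiles of sequenced MiSeq chips were imaged over ~14 h at 37 °C. On them, barcoded ribozyme variants had been transcribed in situ by E. coli RNA polymerase and were tracked via a hybridised Cy3 probe while glucosamine-6-phosphate (40 μM to 10 mM) in HEPES/KCl/Mg(OAc)2 buffer flowed in. Per-tile medians, normalised to baseline and to non-cleaving reference variants, were fit to one- or two-exponential decays for kobs, and weighted Michaelis–Menten fits gave kcat and KM.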

In data set [2] the parent is B1. In words: self-cleavage kobs at 40 uM GlcN6P; higher = faster cleavage; RNA array. In outline:
as §1

In data set [3] the parent is B1. In words: self-cleavage kobs at 160 uM GlcN6P; higher = faster cleavage; RNA array. The essentials:
as §1

Variants of B1 are the subject of data set [4]. In words: self-cleavage kobs at 2500 uM GlcN6P; higher = faster cleavage; RNA array. In outline:
as §1

The variants in data set [5] derive from B1. In words: self-cleavage kobs at 10000 uM GlcN6P; higher = faster cleavage; RNA array. In outline: as §1
Data set [6] covers variants of B1. In words: self-cleavage kobs at 640 uM GlcN6P; higher = faster cleavage; RNA array. The essentials:
as §1

In data set [7] the parent is B1. Nature of the data set: KM; higher = weaker cofactor use; RNA array. In outline: as §1

± gives the standard error. For part of these data: Variants at the floor of the assay were thinned out.

Consider U46G A52U, for which the kcat with glucosamine-6-phosphate [1] came out at 0.000165 ± 1.2e-05 s⁻¹. Besides, the “self-cleavage kobs at 40 uM GlcN6P” value in the data set with glucosamine-6-phosphate [2] was less than 1e-05 s⁻¹. Besides, the “self-cleavage kobs at 160 uM GlcN6P” value with glucosamine-6-phosphate [3] was less than 1e-05 s⁻¹. Besides, the “self-cleavage kobs at 2500 uM GlcN6P” value with glucosamine-6-phosphate [4] came to 2.87e-05 ± 1.3e-05 s⁻¹. The “self-cleavage kobs at 10000 uM GlcN6P” value with glucosamine-6-phosphate [5] is 7.51e-05 ± 2.1e-05 s⁻¹.
Turning to U46G G59U, the kcat with glucosamine-6-phosphate [1] is less than 1e-05 s⁻¹. The “self-cleavage kobs at 40 uM GlcN6P” value in the data set with glucosamine-6-phosphate [2] was less than 1e-05 s⁻¹. The “self-cleavage kobs at 640 uM GlcN6P” value with glucosamine-6-phosphate [6] is less than 1e-05 s⁻¹.
In the case of U45G C68G, the kcat with glucosamine-6-phosphate [1] stood at 0.000114 ± 1.6e-05 s⁻¹. The KM in the data set with glucosamine-6-phosphate [7] came to 2980 ± 1100 µM. Also, the “self-cleavage kobs at 640 uM GlcN6P” value with glucosamine-6-phosphate [6] was 2.89e-05 ± 1.3e-05 s⁻¹. Moreover, in the data set with glucosamine-6-phosphate [4], the “self-cleavage kobs at 2500 uM GlcN6P” value turned out to be 4.55e-05 ± 1.3e-05 s⁻¹. Moreover, the “self-cleavage kobs at 10000 uM GlcN6P” value with glucosamine-6-phosphate [5] turned out to be 8.96e-05 ± 1.3e-05 s⁻¹.
In the case of A33C U47A, the kcat with glucosamine-6-phosphate [1] was 0.000256 ± 2.1e-05 s⁻¹. Besides, the KM with glucosamine-6-phosphate [7] turned out to be 2950 ± 550 µM. The “self-cleavage kobs at 640 uM GlcN6P” value with glucosamine-6-phosphate [6] was determined as 4.21e-05 ± 1.7e-05 s⁻¹. Besides, the “self-cleavage kobs at 2500 uM GlcN6P” value with glucosamine-6-phosphate [4] was 0.000136 ± 4.7e-05 s⁻¹. The “self-cleavage kobs at 10000 uM GlcN6P” value with glucosamine-6-phosphate [5] stood at 0.000195 ± 3.4e-05 s⁻¹.
With G41C U54G, in the data set with glucosamine-6-phosphate [1], the kcat amounted to 0.000435 ± 5.6e-05 s⁻¹. In addition, in the data set with glucosamine-6-phosphate [7], the KM was found to be 1610 ± 450 µM. Further, in the data set with glucosamine-6-phosphate [6], the “self-cleavage kobs at 640 uM GlcN6P” value is 0.000123 ± 2.4e-05 s⁻¹. The “self-cleavage kobs at 2500 uM GlcN6P” value in the data set with glucosamine-6-phosphate [4] amounted to 0.000354 ± 8.9e-05 s⁻¹. In addition, the “self-cleavage kobs at 10000 uM GlcN6P” value with glucosamine-6-phosphate [5] turned out to be 0.000363 ± 4.8e-05 s⁻¹.
Turning to A39C A64G, in the data set with glucosamine-6-phosphate [1], the kcat was found to be 0.00631 ± 0.0019 s⁻¹. Also, in the data set with glucosamine-6-phosphate [7], the KM was 1870 ± 760 µM. The “self-cleavage kobs at 40 uM GlcN6P” value in the data set with glucosamine-6-phosphate [2] was found to be 0.000169 ± 1.3e-05 s⁻¹. In addition, the “self-cleavage kobs at 160 uM GlcN6P” value with glucosamine-6-phosphate [3] turned out to be 0.000342 ± 6.2e-05 s⁻¹. Further, the “self-cleavage kobs at 640 uM GlcN6P” value with glucosamine-6-phosphate [6] was found to be 0.0014 ± 0.00018 s⁻¹. Further, the “self-cleavage kobs at 2500 uM GlcN6P” value with glucosamine-6-phosphate [4] worked out at 0.00323 ± 0.00045 s⁻¹. The “self-cleavage kobs at 10000 uM GlcN6P” value in the data set with glucosamine-6-phosphate [5] is 0.00604 ± 0.00065 s⁻¹.
In the case of C11G G66A, the kcat with glucosamine-6-phosphate [1] was less than 1e-05 s⁻¹. Besides, the “self-cleavage kobs at 40 uM GlcN6P” value in the data set with glucosamine-6-phosphate [2] is less than 1e-05 s⁻¹. In addition, the “self-cleavage kobs at 160 uM GlcN6P” value in the data set with glucosamine-6-phosphate [3] is less than 1e-05 s⁻¹. For the same variant, in the data set with glucosamine-6-phosphate [6], the “self-cleavage kobs at 640 uM GlcN6P” value was less than 1e-05 s⁻¹. In the data set with glucosamine-6-phosphate [5], the “self-cleavage kobs at 10000 uM GlcN6P” value was less than 1e-05 s⁻¹.
G51U U57A: the kcat with glucosamine-6-phosphate [1] was less than 1e-05 s⁻¹. Also, the “self-cleavage kobs at 2500 uM GlcN6P” value with glucosamine-6-phosphate [4] was less than 1e-05 s⁻¹. Besides, the “self-cleavage kobs at 10000 uM GlcN6P” value with glucosamine-6-phosphate [5] is less than 1e-05 s⁻¹.
Consider G29U A53G, for which the kcat with glucosamine-6-phosphate [1] amounted to 0.00448 ± 0.0019 s⁻¹. The “self-cleavage kobs at 40 uM GlcN6P” value with glucosamine-6-phosphate [2] stood at 0.000165 ± 2.5e-05 s⁻¹. The “self-cleavage kobs at 160 uM GlcN6P” value with glucosamine-6-phosphate [3] was found to be 0.000262 ± 5.4e-05 s⁻¹. Moreover, the “self-cleavage kobs at 640 uM GlcN6P” value with glucosamine-6-phosphate [6] came out at 0.000805 ± 0.00012 s⁻¹. For the same variant, the “self-cleavage kobs at 2500 uM GlcN6P” value in the data set with glucosamine-6-phosphate [4] was found to be 0.0021 ± 0.00029 s⁻¹. Also, the “self-cleavage kobs at 10000 uM GlcN6P” value in the data set with glucosamine-6-phosphate [5] amounted to 0.00417 ± 0.00059 s⁻¹.
As to A6U G66A, the kcat in the data set with glucosamine-6-phosphate [1] came out at 0.000205 ± 1.7e-05 s⁻¹. Moreover, in the data set with glucosamine-6-phosphate [7], the KM worked out at 3170 ± 600 µM. The “self-cleavage kobs at 640 uM GlcN6P” value with glucosamine-6-phosphate [6] amounted to 3.28e-05 ± 1.3e-05 s⁻¹. Also, the “self-cleavage kobs at 2500 uM GlcN6P” value with glucosamine-6-phosphate [4] came out at 9.12e-05 ± 1.4e-05 s⁻¹. In addition, the “self-cleavage kobs at 10000 uM GlcN6P” value in the data set with glucosamine-6-phosphate [5] came to 0.000155 ± 1.9e-05 s⁻¹.
On to A15C U56A, for which the kcat with glucosamine-6-phosphate [1] was 0.00477 ± 0.0013 s⁻¹. Moreover, the KM with glucosamine-6-phosphate [7] stood at 1930 ± 760 µM. In the data set with glucosamine-6-phosphate [2], the “self-cleavage kobs at 40 uM GlcN6P” value is 0.000113 ± 1.7e-05 s⁻¹. Further, the “self-cleavage kobs at 640 uM GlcN6P” value with glucosamine-6-phosphate [6] stood at 0.00107 ± 0.00016 s⁻¹. Moreover, the “self-cleavage kobs at 2500 uM GlcN6P” value in the data set with glucosamine-6-phosphate [4] was found to be 0.00218 ± 0.0005 s⁻¹. The “self-cleavage kobs at 10000 uM GlcN6P” value with glucosamine-6-phosphate [5] came out at 0.00482 ± 0.0008 s⁻¹.
Consider G29A U55G, for which the kcat with glucosamine-6-phosphate [1] turned out to be 0.00132 ± 0.00029 s⁻¹. The KM with glucosamine-6-phosphate [7] worked out at 2980 ± 960 µM. The “self-cleavage kobs at 160 uM GlcN6P” value with glucosamine-6-phosphate [3] came out at 5.56e-05 ± 1.3e-05 s⁻¹. Besides, the “self-cleavage kobs at 640 uM GlcN6P” value in the data set with glucosamine-6-phosphate [6] was 0.000305 ± 6.3e-05 s⁻¹. For the same variant, the “self-cleavage kobs at 2500 uM GlcN6P” value with glucosamine-6-phosphate [4] is 0.000622 ± 0.00011 s⁻¹. Further, the “self-cleavage kobs at 10000 uM GlcN6P” value in the data set with glucosamine-6-phosphate [5] amounted to 0.000954 ± 0.00021 s⁻¹.
For G44U U57G, in the data set with glucosamine-6-phosphate [1], the kcat is less than 1e-05 s⁻¹. Moreover, in the data set with glucosamine-6-phosphate [2], the “self-cleavage kobs at 40 uM GlcN6P” value was less than 1e-05 s⁻¹. Also, the “self-cleavage kobs at 160 uM GlcN6P” value with glucosamine-6-phosphate [3] is less than 1e-05 s⁻¹. Moreover, the “self-cleavage kobs at 2500 uM GlcN6P” value with glucosamine-6-phosphate [4] is less than 1e-05 s⁻¹. Also, the “self-cleavage kobs at 10000 uM GlcN6P” value in the data set with glucosamine-6-phosphate [5] was less than 1e-05 s⁻¹.
Regarding G32C C68U, the kcat in the data set with glucosamine-6-phosphate [1] stood at 1.25e-05 ± 1.1e-06 s⁻¹. For the same variant, the Michaelis constant (KM) with glucosamine-6-phosphate [7] stood at 1350 ± 620 µM. Further, the “self-cleavage kobs at 160 uM GlcN6P” value with glucosamine-6-phosphate [3] was less than 1e-05 s⁻¹.
Take A15C G29U: the kcat in the data set with glucosamine-6-phosphate [1] turned out to be 0.00341 ± 0.00015 s⁻¹. Also, the KM with glucosamine-6-phosphate [7] was found to be 2200 ± 140 µM. The “self-cleavage kobs at 40 uM GlcN6P” value with glucosamine-6-phosphate [2] was 6.18e-05 ± 8.8e-06 s⁻¹. The “self-cleavage kobs at 640 uM GlcN6P” value in the data set with glucosamine-6-phosphate [6] was 0.000757 ± 0.00012 s⁻¹. For the same variant, the “self-cleavage kobs at 2500 uM GlcN6P” value with glucosamine-6-phosphate [4] turned out to be 0.00169 ± 0.00042 s⁻¹. Besides, the “self-cleavage kobs at 10000 uM GlcN6P” value with glucosamine-6-phosphate [5] came out at 0.00285 ± 0.00042 s⁻¹.
